Experiments:
[1] = target: T1, cyno TCRab, in house produced (extracellular domains fused to a zipper peptide) (cynomolgus); assay: SPR ProteOn XPR36, TCRab immobilized by amine coupling, 1:1 model
T1 construct: Numbering of the four differences is not explained; not shown: variable domains, if any; any residues beyond C131 of the beta chain
T1 alpha: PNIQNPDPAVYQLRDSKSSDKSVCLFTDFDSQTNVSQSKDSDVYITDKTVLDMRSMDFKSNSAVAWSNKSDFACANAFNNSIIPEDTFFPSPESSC
T1 beta: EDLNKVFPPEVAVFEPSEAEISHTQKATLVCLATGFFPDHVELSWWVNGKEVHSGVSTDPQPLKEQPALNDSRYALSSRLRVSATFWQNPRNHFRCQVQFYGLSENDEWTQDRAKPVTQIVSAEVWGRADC
Method: Recombinant TCR proteins were immobilized on a GLC Sensor Chip (Biorad) via amine coupling, using EDC and NHS chemistry (running buffer: HBS-EP+, pH 7.4). Purified ISVDs were injected for 2 minutes (flow rate 45 μL/min) at different concentrations (between 0.2 nM and 200 nM) and dissociation was followed for 900 s. Regeneration was performed by injecting 3 M MgCl₂ for 3 minutes (flow rate 90 μL/min). Data was double referenced by subtracting a reference ligand lane and a blank buffer injection. Processed sensorgrams were analyzed based on the 1:1 interaction model (Langmuir binding model) using ProteOn Manager 3.1.0 (Version 3.1.0.6) software.

[2] = target: T2, human GPC2 (R&D systems, cat no 2304-GP) (human, UniProt Q8N158 24-554, limits assumed); assay: ELISA, GPC2 coated at 2 ug/mL
T2 construct: Bought
T2 sequence (looked up): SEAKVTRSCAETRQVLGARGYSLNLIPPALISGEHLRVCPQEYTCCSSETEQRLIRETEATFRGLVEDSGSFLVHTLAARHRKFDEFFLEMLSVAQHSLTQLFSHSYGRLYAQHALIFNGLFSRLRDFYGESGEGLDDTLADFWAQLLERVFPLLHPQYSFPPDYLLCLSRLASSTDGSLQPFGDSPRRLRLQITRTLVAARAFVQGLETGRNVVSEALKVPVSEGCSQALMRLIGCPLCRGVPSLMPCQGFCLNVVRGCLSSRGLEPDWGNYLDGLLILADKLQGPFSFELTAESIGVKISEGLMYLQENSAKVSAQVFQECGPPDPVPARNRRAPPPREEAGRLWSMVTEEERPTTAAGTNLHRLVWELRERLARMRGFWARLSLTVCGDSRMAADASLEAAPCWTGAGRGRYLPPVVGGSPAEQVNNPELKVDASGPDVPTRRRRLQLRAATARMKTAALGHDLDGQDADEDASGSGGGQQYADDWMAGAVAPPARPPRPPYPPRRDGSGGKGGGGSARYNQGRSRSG
Method: (§1) Human GPC1 (R&D systems, cat no 4519-GP), human GPC2 (R&D systems, cat no 2304-GP), human GPC3 (R&D systems, cat no 2119-GP), human Glypican-5 (R&D systems, cat no 2607-G5) and human Glypican-6 (R&D systems, cat no 2845-GP) were directly coated overnight at 4° C. (2 μg/mL, 1×PBS buffer) on a 384-well HB SpectraPlate (PerkinElmer). The following day the plate was washed 6 times (AquaMax microplate washer, Molecular devices) and blocked with 1×PBS+1% Casein for 2 hours at room temperature. […] After 6 final wash steps the es(HS)TMB substrate (SDT) was added and the reaction stopped by addition of 1 M HCl after 10 minutes. The absorbance of the plate was measured at wavelengths 450 and 620 nm on the Clariostar instrument (BMG LABTECH) and the OD₄₅₀-OD₆₂₀ calculated and plotted for data analysis.

[3] = target: T3, human Glypican-5 (R&D systems, cat no 2607-G5) (human, UniProt P78333 25-553, limits assumed); assay: ELISA, Glypican-5 coated at 2 ug/mL
T3 construct: Bought; also called GPC5
T3 sequence (looked up): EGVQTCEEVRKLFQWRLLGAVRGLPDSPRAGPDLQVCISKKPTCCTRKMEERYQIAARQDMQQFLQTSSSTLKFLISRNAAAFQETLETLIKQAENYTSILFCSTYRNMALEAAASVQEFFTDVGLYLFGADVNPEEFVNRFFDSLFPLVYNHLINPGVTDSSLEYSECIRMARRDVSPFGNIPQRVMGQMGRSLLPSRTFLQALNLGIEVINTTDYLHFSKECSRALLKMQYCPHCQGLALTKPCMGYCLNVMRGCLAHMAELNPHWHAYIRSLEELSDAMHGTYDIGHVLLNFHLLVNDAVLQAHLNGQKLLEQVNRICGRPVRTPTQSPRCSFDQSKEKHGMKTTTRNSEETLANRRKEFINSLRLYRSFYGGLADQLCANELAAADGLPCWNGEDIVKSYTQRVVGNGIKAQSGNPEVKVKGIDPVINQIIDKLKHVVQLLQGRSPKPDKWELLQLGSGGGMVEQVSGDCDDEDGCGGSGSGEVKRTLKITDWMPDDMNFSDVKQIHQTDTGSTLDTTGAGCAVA
Method: as §1

[4] = target: T4, human GPC3 on tumor cell lines (HepG2, Huh-7, NCI-H661, MKN-45, NCI-H23, BxPC-3, NCI-H292) (human, UniProt P51654 25-554); assay: flow cytometry on Huh-7 cells
T4 construct: Endogenous GPC3 of human cancer cell lines; also called GPC3 on HepG2; GPC3 on Huh-7

[5] = target: T5, cyno GPC3 expressed on CHO Flp-In cells (cynomolgus); assay: flow cytometry on cells expressing GPC3; lower end tied by Table 21 to CHO cyno GPC3
T5 construct: range 3-559; On cells; also called cyGPC3 CHO; CHO-cGPC3

B1: A022600424 (other)
chain: DVQLVESGGGVVQPGGSLRLSCVASGYVHKINFYGWYRQAPGKEREKVAHISIGDQTDYADSAKGRFTISRDESKNTVYLQMNSLRPEDTAAYYCRALSRIWPYDYWGQGTLVTVSSGGGGSEVQLVESGGGVVQPGGSLRLSCAASGFTFSSFAMTWVRRPPGKGLEWVATITNKGVTSYADSVKGRFTISRDNAKNTLYLQMNSLRPEDTALYICANARRTGPRAPTDIGSYRGQGTLVTVSSGGGGSGGGSEVQLVESGGGVVQPGGSLRLSCAASGSIFRSVFSSSTMEWYRQAPGKKRELVARIAPGEGTYYGALYADSVKGRFTISRDNAKNTVYLQMNSLRPEDTALYYCASGVAWGQGTLVTVSSGGGGSGGGSEVQLVESGGGVVQPGGSLRLSCAASGFTFRSFGMSWVRQAPGKGPEWVSSISGSGSDTLYADSVKGRFTISRDNSKNTLYLQMNSLRPEDTALYYCTIGGSLSRSSQGTLVTVSSA
notes: Trispecific tetravalent ISVD (VHH) T-cell engager: anti-TCR, two anti-GPC3 (biparatopic), anti-albumin; also called TCE01-5GS-A022600351-9GS-A022600314-9GS-ALB23002-A
- Kd [1]: 5.4 nM
- binding result [2]: no binding
- binding result [3]: no binding
- EC50 [4]: 1.25 nM
- EC50 [5]: 1 to 2 nM

— US20240343823A1 (Ablynx, published 2024)
